Legend:
[1] = target: T1, recombinant His tagged human ROR1 (human, UniProt Q01973 30-403, limits assumed); test: BLI (Octet), FUSE protein loaded on the biosensor, His tagged ROR1 in solution; column 'kdis(1/s)'
T1 construct: Analyte in the BLI assay; also called Human ROR1-His; recombinant ROR1
Experimental: (§1) As shown in FIGS. 5A-5D, the binding affinities (KD) of TCEs for ROR1 were assessed. We examined the magnitude by which several TCEs and mutants thereof bind to recombinant ROR1. Kinetic binding graphs were generated via Bio-Layer Interferometry (BLI) using an Octet system. For each TCE, the biosensor tips were coated with FUSE proteins at 15 μg/ml and probed with either recombinant His tagged ROR1 at concentrations ranging from 100 pM to 10 μM. […] The binding affinity (KD), on rate (k-on) and off rate (k-dis), are summarized for ROR1 in FIG. 5D.
(§2) Antibodies were prepared in 1×PBS with 0.02% Tween-20 with the final concentration of 15 ug/ml. Human ROR1-His or CD3e-His protein were also prepared, and serial diluted (4-fold dilution ranging from 400 nM to 0.098 nM) in 1×PBS with 0.02% Tween-20. The biosensors were pre-moistened in 200 uL of 1×PBS with 0.02% Tween-20 for 10 minutes. Meanwhile, Octet BLI system (ForteBio) was prewarmed for 30 minutes and the flow rate was set to 1000 rpm. The biosensors (Anti-hIgG Fc Capture biosensor) were soaked in 250 uL of 1×PBS with 0.02% Tween-20 for 60 seconds at 30° C. to get an initial baseline reading. After the 60-second baseline reading, the biosensors were exposed to testing antibody for 300 seconds at 30° C. for the association between antibody and the biosensors (coupling antibody with biosensor). The biosensors with antibody were then exposed to human ROR1 or CD3e in 250 uL of 1×PBS with 0.02% Tween-20 at 30° C. for 300 seconds for the association reaction between antibody and human ROR1 or CD3e (association curve). After 300-second association reaction between antibody and antigen, the biosensors with antibody and antigen were then exposed to 250 uL of 1×PBS with 0.02% Tween-20 at 30° C. for 300 seconds for the dissociation reaction between antibody and […]. The binding affinity was calculated by the built-in data fitting algorithm.

human CD3 on T cells [2] = target: T2, human CD3 on T cells (human, UniProt P07766 23-207; P09693 23-182; P04234 22-171; P20963 22-164); test: flow cytometry on human pan T cells (T cells isolated from human PBMC), fluorescent secondary antibody to the IgG1 Fc; table row 'Binding EC50 (Kd)'
T2 construct: whole, on cells; also called human CD3 on Jurkat T cells; human CD3 on T cells isolated from human PBMC
Experimental: (§3) The CD3-specific Fab binding arm is presumed responsible for the observed binding. A Hen Egg Lysozyme (HEL)-specific antibody was used as the negative isotype control. Binding was measured via flow cytometry at various concentrations of test articles using a fluorescently labeled secondary antibody specific for the Fc domain of IgG1. The apparent affinity calculated for each test subject based on the data is shown under each graph. […] Binding to mouse CD3 was not tested because the anti-CD3 clone, 1F3-3, incorporated into the TCE is a humanized variant of clone SP34, which was derived in mouse and is well described as not binding mouse CD3.
(§4) Adherent target cells were collected by brief TrypLE treatment while suspension cells were directly collected. Collected cells were washed once with PBS by centrifugation at 500×g for 5 minutes at room temperature and added to V-bottom 96-well plate (200,000-300,000 cells per well). To prepared Live/Dead fixable red, one vial of powder was dissolved into 50 uL of DMSO to make stock solution and then diluted 1 uL of stock Live/Dead fixable red in 1 mL of PBS to prepare the working solution. 100 uL of Live/Dead fixable red working buffer was then added to the cell in the V-bottom 96-well plate (200,000-300,000 cells per well) and incubated for 15 minutes at room temperature. […] The samples were then analyzed on Cytek flow cytometer.

[3] = target: T3, human ROR1 (Receptor Tyrosine Kinase-Like Orphan Receptor 1) on the cell surface (human, UniProt Q01973 30-937); test: flow cytometry on MDA-MB-231 ROR1 super high cells (about 2,000,000 ROR1 per cell), secondary antibody to the IgG1 Fc
T3 construct: whole, on cells; engineered into B16-F10 (high density) and LS174T (low density) cells; also called B16-F10-ROR1-H; LS174T-ROR1-L
Experimental: (§5) Binding of 2A11 (black line), 5A1 (dark grey line) and VHH8 (medium grey line) were tested in TCE format 12A. The commercial ROR1 specific Ab reported to bind the ROR1-Ig domain 2A2 (light grey line), served as the positive control and anti-HEL (dotted black line) served as the negative control. To better visualize binding of each test article to the three cells lines, we plotted MFI on the y-axis for each test article for HEK-293 cells (negative control; FIG. 4I), HEK-293 cells transfected with full length human ROR1 (FIG. 4J) and HEK-293 cells transfected with the ROR1 Ig domain linked to the cell surface via the GPI linker from CD59 (FIG. 4K).
as §4, with “temperature. After the 15-minute incubation, the cells were washed twice with PBS by centrifugation at 500 g for 5 minutes at room temperature. The cells were then cultured with antibodies at different concentrations in 100 uL of Biolegend staining buffer at 4° C. for 45 minutes. After the 45-minute incubation with primary antibody, the cells were washed with PBS by centrifugation at 500 g for 5 minutes at room temperature. The cells were then cultured with PE-Cy7-conjugated mouse-anti-human IgG secondary antibody in Biolegend staining buffer at 4° C. for 45 minutes.” for “temperature.”

[4] = target: T3, human ROR1 (Receptor Tyrosine …); test: flow cytometry on MDA-MB-231 variants, low ROR1 density; low cell surface density of ROR1
Experimental: as §5, §4

[5] = target: T4, cynomolgus (NHP) CD3 on cynomolgus pan-T cells (cynomolgus); test: flow cytometry on cynomolgus pan-T cells
T4 construct: whole, on cells; also called cynomolgus CD3
Experimental: as §3, §4

[6] = target: T3, human ROR1 (Receptor Tyrosine …); test: flow cytometry on MDA-MB-231 variants, high ROR1 density; high cell surface density of ROR1
Experimental: as §5, §4

[7] = target: T3, human ROR1 (Receptor Tyrosine …); test: flow cytometry on MDA-MB-231 ROR1 normal cells (about 35,000 ROR1 per cell), secondary antibody to the IgG1 Fc
Experimental: as §5
as §4, with “temperature. After the 15-minute incubation, the cells were washed twice with PBS by centrifugation at 500 g for 5 minutes at room temperature. The cells were then cultured with antibodies at different concentrations in 100 uL of Biolegend staining buffer at 4° C. for 45 minutes. After the 45-minute incubation with primary antibody, the cells were washed with PBS by centrifugation at 500 g for 5 minutes at room temperature. The cells were then cultured with PE-Cy7-conjugated mouse-anti-human IgG secondary antibody in Biolegend staining buffer at 4° C. for 45 minutes.” for “temperature.”

human CD3 on T cells [8] = target: T2, human CD3 on T cells; test: flow cytometry on Jurkat T cells, fluorescent secondary antibody to the IgG1 Fc; table row 'Binding EC50 (Kd)'
Experimental: as §3, §4

[9] = target: T4, cynomolgus (NHP) CD3 on cynomolgus …; test: flow cytometry on cynomolgus pan T cells, fluorescent secondary antibody to the IgG1 Fc; table row 'Binding EC50 (Kd)'
Experimental: as §3, §4

[10] = target: T1, recombinant His tagged human ROR1; test: BLI (Octet), FUSE protein loaded on the biosensor, His tagged ROR1 in solution
Experimental: as §1, §2

[11] = target: T5, mouse ROR1 on mouse 4T1 cells (mouse, UniProt Q9Z139 30-937); test: flow cytometry on 4T1 cells expressing mouse ROR1
T5 construct: whole, on cells

[12] = target: T3, human ROR1 (Receptor Tyrosine …); test: flow cytometry on MDA-MB-231 ROR1 low cells (about 17,000 ROR1 per cell), secondary antibody to the IgG1 Fc
Experimental: as §5
as §4, with “temperature. After the 15-minute incubation, the cells were washed twice with PBS by centrifugation at 500 g for 5 minutes at room temperature. The cells were then cultured with antibodies at different concentrations in 100 uL of Biolegend staining buffer at 4° C. for 45 minutes. After the 45-minute incubation with primary antibody, the cells were washed with PBS by centrifugation at 500 g for 5 minutes at room temperature. The cells were then cultured with PE-Cy7-conjugated mouse-anti-human IgG secondary antibody in Biolegend staining buffer at 4° C. for 45 minutes.” for “temperature.”

[13] = target: T3, human ROR1 (Receptor Tyrosine …); test: flow cytometry on MDA-MB-231 ROR1 high cells (about 500,000 ROR1 per cell), secondary antibody to the IgG1 Fc
Experimental: as §5
as §4, with “temperature. After the 15-minute incubation, the cells were washed twice with PBS by centrifugation at 500 g for 5 minutes at room temperature. The cells were then cultured with antibodies at different concentrations in 100 uL of Biolegend staining buffer at 4° C. for 45 minutes. After the 45-minute incubation with primary antibody, the cells were washed with PBS by centrifugation at 500 g for 5 minutes at room temperature. The cells were then cultured with PE-Cy7-conjugated mouse-anti-human IgG secondary antibody in Biolegend staining buffer at 4° C. for 45 minutes.” for “temperature.”

T2 sequence (P07766 23-207, chain 1 of 4): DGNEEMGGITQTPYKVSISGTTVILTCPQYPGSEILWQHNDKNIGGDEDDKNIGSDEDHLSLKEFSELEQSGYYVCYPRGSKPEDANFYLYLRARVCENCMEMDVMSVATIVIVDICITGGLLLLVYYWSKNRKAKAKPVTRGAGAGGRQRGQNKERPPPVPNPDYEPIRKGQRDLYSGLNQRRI
T2 sequence (P09693 23-182, chain 2 of 4): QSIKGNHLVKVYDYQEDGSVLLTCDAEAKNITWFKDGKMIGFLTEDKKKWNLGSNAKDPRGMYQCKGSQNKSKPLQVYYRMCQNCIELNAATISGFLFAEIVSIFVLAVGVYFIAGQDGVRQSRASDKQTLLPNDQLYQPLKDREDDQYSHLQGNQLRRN
T2 sequence (P04234 22-171, chain 3 of 4): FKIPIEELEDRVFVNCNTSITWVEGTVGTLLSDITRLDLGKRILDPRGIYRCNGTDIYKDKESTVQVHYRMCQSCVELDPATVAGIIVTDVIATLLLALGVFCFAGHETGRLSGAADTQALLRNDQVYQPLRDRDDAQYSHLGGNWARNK
T2 sequence (P20963 22-164, chain 4 of 4): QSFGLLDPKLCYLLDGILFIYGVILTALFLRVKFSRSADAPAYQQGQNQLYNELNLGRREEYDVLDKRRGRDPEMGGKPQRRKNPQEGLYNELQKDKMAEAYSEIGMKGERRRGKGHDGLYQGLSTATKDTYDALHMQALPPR
T3 sequence (Q01973 30-937): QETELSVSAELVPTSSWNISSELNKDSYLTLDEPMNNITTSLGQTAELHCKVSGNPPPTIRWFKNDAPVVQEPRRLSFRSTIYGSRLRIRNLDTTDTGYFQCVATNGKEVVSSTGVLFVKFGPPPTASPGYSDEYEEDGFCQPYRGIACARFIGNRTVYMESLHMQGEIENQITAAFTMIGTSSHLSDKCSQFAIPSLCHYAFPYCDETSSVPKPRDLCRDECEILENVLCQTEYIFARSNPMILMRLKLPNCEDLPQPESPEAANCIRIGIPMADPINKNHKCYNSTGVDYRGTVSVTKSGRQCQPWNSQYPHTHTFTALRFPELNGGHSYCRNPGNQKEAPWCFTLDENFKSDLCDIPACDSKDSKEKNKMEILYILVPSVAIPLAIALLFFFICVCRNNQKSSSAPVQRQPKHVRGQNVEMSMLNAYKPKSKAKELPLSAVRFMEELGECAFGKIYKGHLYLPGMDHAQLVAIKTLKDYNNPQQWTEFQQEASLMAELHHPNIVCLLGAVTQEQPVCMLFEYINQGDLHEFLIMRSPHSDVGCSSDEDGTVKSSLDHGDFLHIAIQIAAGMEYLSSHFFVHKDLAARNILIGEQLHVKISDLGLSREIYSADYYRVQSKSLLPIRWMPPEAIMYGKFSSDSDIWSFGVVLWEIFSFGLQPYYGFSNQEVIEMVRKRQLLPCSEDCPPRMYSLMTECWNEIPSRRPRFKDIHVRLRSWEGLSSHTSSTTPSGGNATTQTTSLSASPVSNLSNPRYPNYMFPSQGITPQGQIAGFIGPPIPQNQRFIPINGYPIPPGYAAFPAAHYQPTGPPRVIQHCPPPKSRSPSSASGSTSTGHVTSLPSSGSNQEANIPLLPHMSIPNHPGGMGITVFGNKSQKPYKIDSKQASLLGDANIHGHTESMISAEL
T1 sequence (Q01973 30-403 limits assumed): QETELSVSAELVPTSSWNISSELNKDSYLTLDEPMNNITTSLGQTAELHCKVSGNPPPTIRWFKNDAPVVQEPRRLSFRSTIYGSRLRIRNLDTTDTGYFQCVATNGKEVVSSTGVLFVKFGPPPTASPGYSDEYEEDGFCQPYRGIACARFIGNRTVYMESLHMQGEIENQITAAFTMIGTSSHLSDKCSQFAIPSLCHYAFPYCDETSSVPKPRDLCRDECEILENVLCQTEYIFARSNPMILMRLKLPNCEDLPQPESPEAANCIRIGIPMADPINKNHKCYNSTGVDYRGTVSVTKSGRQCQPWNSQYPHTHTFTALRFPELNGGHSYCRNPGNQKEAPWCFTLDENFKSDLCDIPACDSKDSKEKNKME
T5 sequence (Q9Z139 30-937): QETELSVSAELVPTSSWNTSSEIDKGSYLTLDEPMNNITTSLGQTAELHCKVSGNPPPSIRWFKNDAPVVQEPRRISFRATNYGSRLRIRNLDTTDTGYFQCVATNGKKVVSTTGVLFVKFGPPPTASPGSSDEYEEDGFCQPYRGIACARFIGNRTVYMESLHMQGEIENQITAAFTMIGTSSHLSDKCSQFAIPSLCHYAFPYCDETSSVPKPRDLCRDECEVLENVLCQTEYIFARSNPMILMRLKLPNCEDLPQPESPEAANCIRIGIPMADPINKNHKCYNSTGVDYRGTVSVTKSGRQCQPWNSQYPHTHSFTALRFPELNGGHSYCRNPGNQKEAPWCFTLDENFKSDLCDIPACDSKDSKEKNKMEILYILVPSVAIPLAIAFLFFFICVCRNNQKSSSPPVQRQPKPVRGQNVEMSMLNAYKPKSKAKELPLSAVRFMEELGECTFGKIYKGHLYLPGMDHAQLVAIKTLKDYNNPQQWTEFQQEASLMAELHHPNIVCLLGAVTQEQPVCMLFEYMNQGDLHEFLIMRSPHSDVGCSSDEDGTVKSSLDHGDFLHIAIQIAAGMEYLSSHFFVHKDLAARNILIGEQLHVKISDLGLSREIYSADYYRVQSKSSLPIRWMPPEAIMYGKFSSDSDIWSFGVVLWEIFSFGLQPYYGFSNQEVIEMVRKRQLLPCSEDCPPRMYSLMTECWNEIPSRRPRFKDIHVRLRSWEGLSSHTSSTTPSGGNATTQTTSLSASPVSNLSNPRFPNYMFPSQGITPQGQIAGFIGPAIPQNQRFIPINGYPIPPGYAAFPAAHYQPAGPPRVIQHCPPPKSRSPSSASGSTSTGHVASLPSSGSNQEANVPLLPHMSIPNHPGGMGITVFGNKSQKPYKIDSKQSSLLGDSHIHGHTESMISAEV

Row | Binder | koff [1] [s⁻¹] | EC50 (human CD3 on T cells [2]) [µM] | EC50 [3] [µM] | EC50 [4] [µM] | fold difference in apparent binding affinity, cynomolgus against human CD3 [5] [fold] | EC50 [6] [µM] | EC50 [7] [µM] | EC50 (human CD3 on T cells [8]) [µM] | EC50 [9] [µM] | Kd [10] [µM] | kon [10] [M⁻¹ s⁻¹] | binding result [11] | EC50 [12] [µM] | EC50 [13] [µM]
1 | FUSE-393 (bispecific antibody, human IgG1, lambda, L234A L235A, Hole chain: 5A1-linker-5A1-Fc; knob chain: anti-CD3 Fab heavy chain-Fc; anti-CD3 light chain; also called format 11A incorporating the 5A1 ROR1-specific VHH) QVQLQESGGGSVQAGGSLKLSCTASGYTNRLKCMGWFRQAPGKEREEIATISTGTGNTYYADSVKGRFTFSQDKVKNTVYLQMNTLKPDDTGMYYCAADVRPDGTTCHYNSGGQGTQVTVSSGGGGSGGGGSGGGGSQVQLQESGGGSVQAGGSLKLSCTASGYTNRLKCMGWFRQAPGKEREEIATISTGTGNTYYADSVKGRFTFSQDKVKNTVYLQMNTLKPDDTGMYYCAADVRPDGTTCHYNSGGQGTQVTVSSEPKSSDKTHTCPPCPAPEAAGGPSVFLFPPKPKDTLMISRTPEVTCVVVDVSHEDPEVKFNWYVDGVEVHNAKTKPREEQYNSTYRVVSVLTVLHQDWLNGKEYKCKVSNKALPAPIEKTISKAKGQPREPQVYTLPPSREEMTKNQVSLSCAVKGFYPSDIAVEWESNGQPENNYKTTPPVLDSDGSFFLVSKLTVDKSRWQQGNVFSCSVMHEALHNRFTQKSLSLSPGK heavy: EVQLVESGGGLVQPGGSLRLSCAASGFTFSTYAMNWVRQAPGKGLEWVARIRSKYNNYATYYADSVKDRFTISRDDSKNTLYLQMNSLRAEDTAVYYCARHGNFGNSYVSWFAYWGQGTMVTVSSASTKGPSVFPLAPSSKSTSGGTAALGCLVKDYFPEPVTVSWNSGALTSGVHTFPAVLQSSGLYSLSSVVTVPSSSLGTQTYICNVNHKPSNTKVDKKVEPKSCDKTHTCPPCPAPEAAGGPSVFLFPPKPKDTLMISRTPEVTCVVVDVSHEDPEVKFNWYVDGVEVHNAKTKPREEQYNSTYRVVSVLTVLHQDWLNGKEYKCKVSNKALPAPIEKTISKAKGQPREPQVYTLPPSREEMTKNQVSLWCLVKGFYPSDIAVEWESNGQPENNYKTTPPVLDSDGSFFLYSKLTVDKSRWQQGNVFSCSVMHEALHNHYTQKSLSLSPGK light: QAVVTQEPSLTVSPGGTVTLTCRSSTGAVTTSNYANWVQQKPGQAPRGLIGGTNKRAPGTPARFSGSLLGGKAALTLSGVQPEDEAEYYCALWYSNLWVFGGGTKLTVLGQPKAAPSVTLFPPSSEELQANKATLVCLISDFYPGAVTVAWKADSSPVKAGVETTTPSKQSNNKYAASSYLSLTPEQWKSHRSYSCQVTHEGSTVEKTVAPTECS | 0.000468 | 0.00445 | 0.0163 | ~0.3 | < 2 | ~0.015 | 0.281 | 0.00334 | 0.00304 | 0.0218 | 21500 | no binding | 0.288 | 0.0265
2 | FUSE-394 (bispecific antibody, human IgG1, lambda, L234A L235A, Hole chain: 5A1-Fc; knob chain: anti-CD3 Fab heavy chain-Fc; light chain: anti-CD3 light chain-linker-5A1; also called format 13cA incorporating the 5A1 ROR1-specific VHH) QVQLQESGGGSVQAGGSLKLSCTASGYTNRLKCMGWFRQAPGKEREEIATISTGTGNTYYADSVKGRFTFSQDKVKNTVYLQMNTLKPDDTGMYYCAADVRPDGTTCHYNSGGQGTQVTVSSEPKSSDKTHTCPPCPAPEAAGGPSVFLFPPKPKDTLMISRTPEVTCVVVDVSHEDPEVKFNWYVDGVEVHNAKTKPREEQYNSTYRVVSVLTVLHQDWLNGKEYKCKVSNKALPAPIEKTISKAKGQPREPQVYTLPPSREEMTKNQVSLSCAVKGFYPSDIAVEWESNGQPENNYKTTPPVLDSDGSFFLVSKLTVDKSRWQQGNVFSCSVMHEALHNRFTQKSLSLSPGK heavy: EVQLVESGGGLVQPGGSLRLSCAASGFTFSTYAMNWVRQAPGKGLEWVARIRSKYNNYATYYADSVKDRFTISRDDSKNTLYLQMNSLRAEDTAVYYCARHGNFGNSYVSWFAYWGQGTMVTVSSASTKGPSVFPLAPSSKSTSGGTAALGCLVKDYFPEPVTVSWNSGALTSGVHTFPAVLQSSGLYSLSSVVTVPSSSLGTQTYICNVNHKPSNTKVDKKVEPKSCDKTHTCPPCPAPEAAGGPSVFLFPPKPKDTLMISRTPEVTCVVVDVSHEDPEVKFNWYVDGVEVHNAKTKPREEQYNSTYRVVSVLTVLHQDWLNGKEYKCKVSNKALPAPIEKTISKAKGQPREPQVYTLPPSREEMTKNQVSLWCLVKGFYPSDIAVEWESNGQPENNYKTTPPVLDSDGSFFLYSKLTVDKSRWQQGNVFSCSVMHEALHNHYTQKSLSLSPGK light: QAVVTQEPSLTVSPGGTVTLTCRSSTGAVTTSNYANWVQQKPGQAPRGLIGGTNKRAPGTPARFSGSLLGGKAALTLSGVQPEDEAEYYCALWYSNLWVFGGGTKLTVLGQPKAAPSVTLFPPSSEELQANKATLVCLISDFYPGAVTVAWKADSSPVKAGVETTTPSKQSNNKYAASSYLSLTPEQWKSHRSYSCQVTHEGSTVEKTVAPTECSGGGGSGGGGSGGGGSGGGGSQVQLQESGGGSVQAGGSLKLSCTASGYTNRLKCMGWFRQAPGKEREEIATISTGTGNTYYADSVKGRFTFSQDKVKNTVYLQMNTLKPDDTGMYYCAADVRPDGTTCHYNSGGQGTQVTVSS | 0.00163 | 0.0105 | 0.0061 | ~0.1 | < 2 | ~0.005 | 0.154 | 0.0106 | 0.00747 | 0.0569 | 28700 | no binding | 0.0697 | 0.0195
